Experimental data: patent US10337022B2, “Methods of increasing root biomass in plants” (Agresearch Limited, priority 2014, dated 2019)

How the values were obtained:
DELLA (RGA1) = biological target: T1, DELLA (RGA1) (Arabidopsis thaliana, UniProt Q9SLH3); experiment: Yeast two-hybrid (Y2H) interaction with DELLA (RGA1); assay type: binding; details: PPD1-DBD as bait, selective medium with 15 mM 3AT
T1 construct: expressed in transfected cells; host or cells: yeast strain MaV203
T1 sequence (Q9SLH3 with tags, fused parts or gaps): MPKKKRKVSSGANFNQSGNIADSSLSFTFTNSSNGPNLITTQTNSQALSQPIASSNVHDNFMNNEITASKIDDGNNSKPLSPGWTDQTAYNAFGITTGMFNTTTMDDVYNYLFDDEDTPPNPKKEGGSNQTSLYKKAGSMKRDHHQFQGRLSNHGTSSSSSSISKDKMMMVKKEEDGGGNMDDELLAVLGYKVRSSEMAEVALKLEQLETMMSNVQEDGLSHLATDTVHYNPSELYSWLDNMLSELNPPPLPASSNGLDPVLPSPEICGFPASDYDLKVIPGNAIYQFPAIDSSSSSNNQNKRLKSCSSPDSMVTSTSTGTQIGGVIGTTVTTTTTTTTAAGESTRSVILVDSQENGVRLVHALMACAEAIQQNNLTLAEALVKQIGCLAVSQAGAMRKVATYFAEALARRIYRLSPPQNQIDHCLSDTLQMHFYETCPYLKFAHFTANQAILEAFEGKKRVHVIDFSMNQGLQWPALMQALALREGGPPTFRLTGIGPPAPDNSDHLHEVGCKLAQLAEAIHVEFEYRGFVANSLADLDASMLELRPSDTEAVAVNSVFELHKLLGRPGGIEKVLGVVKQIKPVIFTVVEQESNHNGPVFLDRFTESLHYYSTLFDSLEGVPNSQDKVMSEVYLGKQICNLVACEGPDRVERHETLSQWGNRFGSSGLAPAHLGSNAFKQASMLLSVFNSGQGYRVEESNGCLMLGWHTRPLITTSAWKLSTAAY
Excerpt: The ProQuest two-hybrid system (Invitrogen) was used to analyse interactions between PPD1, and RGA1. Full length coding sequences of PPD1, together with truncation or deletion derivatives of PPD1 (PPD1Δppd, PPD1Δtify, and PPD1Δjas*) (FIG. 4), were Gateway sub-cloned into pDEST32 (N-terminal GAL4DBD) or pDEST22 (N-terminal GAL4AD). When translated these generated the following peptide sequences od SEQ ID NO: 58, 68, 69, 70, 71, 72, which are PPD1-DBD, RGA1, RGA1-AD, PPD1-ppd-DBD, PPD1-tify-DBD, PP1-jas*-DBD respectively.
Combinations of bait and prey constructs were used to co-transform yeast strain MaV203 (Invitrogen), with selection on synthetic dropout (SD) SD/-Leu/-Trp agar plates. Transformed strains were tested for interactions using 10 μl droplets of 1 in 10 and 1 in 100 dilutions on SD/-Leu/-Trp/-His plates with different concentrations of 3-aminotriazol (3-AT) (Sigma). The PPD1-RGA1 interaction was tested with PPD1-DBD used as bait. Transformed yeast was spotted as a ten-fold dilution on control medium (−2) or selective medium (−3) with 15 mM 3AT. Controls were empty vectors, DBD, GAL4 DNA binding domain, AD, GAL4 activation domain (FIG. 4).

NINJA = biological target: T2, NINJA (Arabidopsis thaliana, UniProt Q9SV55); experiment: Yeast two hybrid (Y2H) interaction with NINJA; assay type: binding; details: PPD1 as bait protein
T2 construct: expressed in transfected cells; host or cells: yeast strain MaV203
T2 sequence (Q9SV55 with tags, fused parts or gaps): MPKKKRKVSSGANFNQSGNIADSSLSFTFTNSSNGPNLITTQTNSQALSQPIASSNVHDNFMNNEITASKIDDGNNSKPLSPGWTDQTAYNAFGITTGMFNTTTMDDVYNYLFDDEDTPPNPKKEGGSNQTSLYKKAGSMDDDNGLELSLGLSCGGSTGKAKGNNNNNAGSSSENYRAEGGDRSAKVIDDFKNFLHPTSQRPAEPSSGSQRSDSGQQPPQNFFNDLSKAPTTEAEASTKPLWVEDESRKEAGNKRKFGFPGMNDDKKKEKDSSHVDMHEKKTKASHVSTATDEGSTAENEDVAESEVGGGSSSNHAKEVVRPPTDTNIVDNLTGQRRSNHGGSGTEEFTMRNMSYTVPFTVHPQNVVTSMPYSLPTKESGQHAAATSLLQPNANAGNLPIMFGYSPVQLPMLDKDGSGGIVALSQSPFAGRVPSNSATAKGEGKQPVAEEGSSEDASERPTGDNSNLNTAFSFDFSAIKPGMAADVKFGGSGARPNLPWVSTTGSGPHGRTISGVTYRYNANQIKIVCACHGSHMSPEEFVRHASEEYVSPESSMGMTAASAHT
Experimental: Combinations of bait and prey constructs were used to co-transform yeast strain MaV203 (Invitrogen), with selection on synthetic dropout (SD) SD/-Leu/-Trp agar plates. Transformed strains were tested for interactions using 10 μl droplets of 1 in 10 and 1 in 100 dilutions on SD/-Leu/-Trp/-His plates with different concentrations of 3-aminotriazol (3-AT) (Sigma).

BZR1 = biological target: T3, BZR1 (Arabidopsis thaliana, UniProt Q8S307); experiment: Yeast two hybrid (Y2H) interaction with BZR1; assay type: binding; details: yeast strain MaV203
T3 construct: expressed in transfected cells; host or cells: yeast strain MaV203
T3 sequence (Q8S307 with tags, fused parts or gaps): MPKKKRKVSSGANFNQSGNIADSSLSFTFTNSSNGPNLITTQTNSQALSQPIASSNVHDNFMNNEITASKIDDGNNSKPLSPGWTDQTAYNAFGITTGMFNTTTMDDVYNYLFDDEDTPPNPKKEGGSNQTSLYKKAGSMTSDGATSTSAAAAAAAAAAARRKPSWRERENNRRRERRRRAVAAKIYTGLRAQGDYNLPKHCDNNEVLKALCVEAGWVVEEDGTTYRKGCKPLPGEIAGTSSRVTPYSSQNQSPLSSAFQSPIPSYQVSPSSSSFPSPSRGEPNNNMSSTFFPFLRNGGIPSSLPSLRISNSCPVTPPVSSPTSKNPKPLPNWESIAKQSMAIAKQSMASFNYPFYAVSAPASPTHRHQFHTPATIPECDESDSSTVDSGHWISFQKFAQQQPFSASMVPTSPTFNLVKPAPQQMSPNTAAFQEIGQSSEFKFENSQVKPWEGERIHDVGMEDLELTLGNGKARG

[1] = test system: alfalfa (variety USD5) plants; experiment: Root biomass analysis of alfalfa transformants; assay type: in vivo; details: constitutive promoter, approximately 6 weeks in growth cabinet
Experimental: Cuttings of approximately equal size were taken from WT and alfalfa (variety USD5) plants transformed with Arabidopsis PPD under a constitutive promoter. Cuttings were planted into plastic grow bags containing potting mix. […] The increase in root biomass was quantified by washing the roots under running water (these were photographed, FIG. 12) then the attached above ground portion (leaves and stems) was removed and the roots dried at 65° C. for 48 hr then weighed Table 5.

B1: Arabidopsis PPD: Arabidopsis thaliana PEAPOD 1 protein, At4g14713, SEQ ID NO: 1 (protein, listed as Arabidopsis thaliana)
chain: MDVGVSPAKSILAKPLKLLTEEDISQLTREDCRKFLKDKGMRRPSWNKSQAIQQVLSLKALYEPGDDSGAGIFRKILVSQPVNPPRVTTTLIEPSNELEACGRVSYPEDNGACHRMDSPRSAEFSGGSGHFVSEKDGHKTTISPRSPAETSELVGQMTIFYSGKVNVYDGIPPEKARSIMHFAANPIDLPENGIFASSRMISKLISKEKMMELPQKGLEKANSSRDSGMEGQANRKVSLQRYREKRKDRKFSKAKKCPGVASSSLEMFLNCQPRMKAAYSQNLGCTGSPLHSQSPESQTKSPNLSVDLNSEGI
Y2H binding to DELLA (RGA1) (DELLA (RGA1)): can directly bind | Y2H interaction with NINJA (NINJA): direct interactor | Y2H direct interaction with BZR1 (BZR1): no direct interaction | root growth beyond the grow bag compared to WT plants [1]: increase in root biomass/growth/length/branching
